Laboratory results taken from article PMC11251186, “Higher-order structure and proteoforms of co-occurring C4b-binding protein assemblies in human serum” (The EMBO Journal, 2024).
“And” between values parts separate entries of the source, which are not always exact repeats. Identical values can stand only once.

T1: vitamin K-dependent protein S (ProS) (human, UniProt P07225 42-676, N-glycans at N499, N509, N530)
T1 construct: vitamin K-dependent protein S (ProS), human serum protein; GLA domain, four EGF-like domains (E1-E4), two laminin G-like domains (LG1-2); without signal peptide and propeptide; source: purified from pooled plasma of more than 16 healthy donors together with C4BP (bought: Complement Technology, Inc); endogenous, pooled healthy donor serum (SEC LC-MS)
T1 sequence (looked up): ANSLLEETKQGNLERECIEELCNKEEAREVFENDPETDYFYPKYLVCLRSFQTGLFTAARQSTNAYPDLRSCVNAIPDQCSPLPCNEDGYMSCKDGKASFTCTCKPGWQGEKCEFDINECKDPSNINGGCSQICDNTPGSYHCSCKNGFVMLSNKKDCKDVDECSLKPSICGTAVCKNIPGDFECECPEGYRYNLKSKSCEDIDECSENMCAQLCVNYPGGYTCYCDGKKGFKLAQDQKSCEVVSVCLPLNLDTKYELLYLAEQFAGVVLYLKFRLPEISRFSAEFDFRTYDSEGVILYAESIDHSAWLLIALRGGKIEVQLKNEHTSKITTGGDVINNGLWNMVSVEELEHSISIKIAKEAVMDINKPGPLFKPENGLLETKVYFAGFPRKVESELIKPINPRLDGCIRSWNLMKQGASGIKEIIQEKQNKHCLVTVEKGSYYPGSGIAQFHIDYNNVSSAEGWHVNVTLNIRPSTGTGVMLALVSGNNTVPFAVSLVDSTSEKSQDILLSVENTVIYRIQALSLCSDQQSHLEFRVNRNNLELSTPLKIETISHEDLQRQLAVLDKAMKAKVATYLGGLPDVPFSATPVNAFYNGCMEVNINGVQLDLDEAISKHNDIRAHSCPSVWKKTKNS

T2: C4b-binding protein beta chain (C4BPβ) (Homo sapiens (Human), UniProt P20851, N-glycans at N64, N71, N98, N117, N154)
T2 chain: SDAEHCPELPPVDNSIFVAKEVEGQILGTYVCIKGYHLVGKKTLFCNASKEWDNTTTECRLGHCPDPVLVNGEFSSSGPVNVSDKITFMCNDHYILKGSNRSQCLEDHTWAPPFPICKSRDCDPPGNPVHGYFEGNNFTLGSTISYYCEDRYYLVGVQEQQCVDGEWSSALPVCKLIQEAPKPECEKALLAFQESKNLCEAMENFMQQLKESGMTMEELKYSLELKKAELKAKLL

B1: C4b-binding protein beta chain (C4BPβ) (natural protein, human, UniProt P20851 18-252, looked up)
chain: T2 chain
modifications: N-glycans at N64, N71, N98, N117, N154
notes: three CCP domains; N-terminus S18 after the propeptide cleavage; Disulfide-linked to C4BPα in the assembly; also called β chain; source: endogenous, pooled healthy donor serum (SEC LC-MS)
B2: C4b-binding protein alpha chain (C4BPα) (natural protein, human, UniProt P04003 49-597, looked up)
chain: NCGPPPTLSFAAPMDITLTETRFKTGTTLKYTCLPGYVRSHSTQTLTCNSDGEWVYNTFCIYKRCRHPGELRNGQVEIKTDLSFGSQIEFSCSEGFFLIGSTTSRCEVQDRGVGWSHPLPQCEIVKCKPPPDIRNGRHSGEENFYAYGFSVTYSCDPRFSLLGHASISCTVENETIGVWRPSPPTCEKITCRKPDVSHGEMVSGFGPIYNYKDTIVFKCQKGFVLRGSSVIHCDADSKWNPSPPACEPNSCINLPDIPHASWETYPRPTKEDVYVVGTVLRYRCHPGYKPTTDEPTTVICQKNLRWTPYQGCEALCCPEPKLNNGEITQHRKSRPANHCVYFYGDEISFSCHETSRFSAICQGDGTWSPRTPSCGDICNFPPKIAHGHYKQSSSYSFFKEEIIYECDKGYILVGQAKLSCSYSHWSAPAPQCKALCRKPELVNGRLSVDKDQYVEPENVTIQCDSGYGVVGPQSITCSGNRTWYPEVPKCEWETPEGCEQVLTGKRLMQCLPNPEDVKMALEVYKLSLEIEQLELQRDSARQSTLDKEL
modifications: N-glycans at N221, N506, N528
notes: eight CCP domains and the C-terminal oligomerization core; without the signal peptide; Disulfide-linked to the other C4BPα chains and to C4BPβ in the assembly; also called α chain; source: endogenous, pooled healthy donor serum (SEC LC-MS)
B3: vitamin K-dependent protein S (ProS) (protein)
chain: T1 sequence (looked up)
modifications: N-glycans at N499, N509, N530

Legend:
[1] = molecular target: B2; experiment: cross-linking; C4BP 0.5 g/l in PBS pH 7.4, 1 mM DSS or 5 mM DMTMM, 30 min, room temperature; SDS-PAGE bands digested with trypsin, LC-MS/MS; cross-links kept if found in two of three replicates; conditions: both partners purified
[2] = molecular target: T1, vitamin K-dependent protein S (ProS); experiment: as above; conditions: both partners purified
[3] = molecular target: the molecule itself; experiment: as above
[4] = molecular target: B1; experiment: native MS; Orbitrap charge detection MS (CDMS) of native C4BP, 1 M ammonium acetate pH 7.4, ~1 μM; conditions: both partners purified
[5] = molecular target: T2, C4b-binding protein beta chain (C4BPβ); experiment: native CDMS, mass photometry, XL-MS and HS-AFM of co-purified serum C4BP complex; C4BPβ present only disulfide-linked to C4BPα in the serum C4BP assembly (α7β1/α6β1), co-purified with ProS; the non-covalent complex dissociates at pH 2 or in urea

Binder: B1
- binding result [1]: binds
- binding result [2]: binds

Binder: B2
- binding result [3]: binds
- stoichiometry N [4]: 7 C4BPα chains per C4BPβ chain and 6 C4BPα chains per C4BPβ chain

Binder: B3
- binding result [5]: binds
